Common to all, as to assay: ELISA
(In general: An ELISA detects its analyte on a solid surface through an enzyme-linked reagent.)

For test [1], the target named is recombinant purified αM integrin subunit (UniProt P11215 17-1152).
Test [2] deals with recombinant purified β2 integrin subunit (UniProt P05107 23-769).
Test [3] has as its target recombinant purified integrin αMβ2 (UniProt P11215 17-1152; P05107 23-769).

Ends that are not written are not given here. Bounds are passed on as bounds.

Broadly, the Kd is the equilibrium constant for the complex coming apart. In the case of KIIPFNRLTIG (also: biotin label, position not given here) [peptide P2-C, Fgγ(385)KIIPFNRLTIG(395)], the Kd in test [1] stood at 100 nM; in test [2], 50 nM; in test [3], 12 nM.

For GWTVFQKRLDGSV (also: biotin label, position not given here) [peptide P1, Fgγ(190)GWTVFQKRLDGSV(202)], in test [2], the Kd is above 100000 nM.
